According to US20070100561A1, “Crystals of DPP-IV” (priority 2002, published 2007):

Experiments:
[1] = target: soluble extracellular domain of human dipeptidyl peptidase IV (sDPP-IV; residues 31-766), glycosylated (human) (UniProt P27487); assay: enzyme inhibition, fluorogenic substrate Ala-Pro-7-amido-4-trifluoromethylcoumarin, assay buffer, 25° C., glycosylated sDPP-IV
[2] = target: DPP-IV as immobilized on the CM5 Biacore sensor (human) (UniProt P27487); assay: SPR (Biacore), DPP-IV immobilized on CM5, Diprotin A in Hepes running buffer
Sequence of DPP-IV as immobilized on the CM5 Biacore sensor (human) (P27487 31-766 limits assumed): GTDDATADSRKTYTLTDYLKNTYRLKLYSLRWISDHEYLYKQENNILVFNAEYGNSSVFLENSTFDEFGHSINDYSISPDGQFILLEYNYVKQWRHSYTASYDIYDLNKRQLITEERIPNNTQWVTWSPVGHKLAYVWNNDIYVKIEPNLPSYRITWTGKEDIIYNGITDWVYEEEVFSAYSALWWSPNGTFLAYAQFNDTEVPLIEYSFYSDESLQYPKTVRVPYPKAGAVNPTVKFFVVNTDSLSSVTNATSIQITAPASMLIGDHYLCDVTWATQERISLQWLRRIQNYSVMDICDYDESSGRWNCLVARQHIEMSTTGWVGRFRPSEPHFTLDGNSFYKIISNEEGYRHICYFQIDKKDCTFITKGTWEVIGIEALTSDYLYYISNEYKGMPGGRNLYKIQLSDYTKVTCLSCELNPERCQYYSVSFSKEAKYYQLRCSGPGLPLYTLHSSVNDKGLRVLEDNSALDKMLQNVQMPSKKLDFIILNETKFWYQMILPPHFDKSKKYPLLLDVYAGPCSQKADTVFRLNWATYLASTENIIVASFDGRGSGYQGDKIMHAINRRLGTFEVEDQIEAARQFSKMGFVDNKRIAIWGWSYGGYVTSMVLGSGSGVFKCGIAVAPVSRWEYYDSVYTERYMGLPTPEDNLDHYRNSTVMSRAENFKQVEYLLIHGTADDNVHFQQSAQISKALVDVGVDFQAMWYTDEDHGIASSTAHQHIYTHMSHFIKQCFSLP

Sequence of soluble extracellular domain of human dipeptidyl peptidase IV (sDPP-IV; residues 31-766), glycosylated (human) (P27487 31-766 limits assumed): as above

Ki [1]: 4.63 µM | Kd [2]: 3.8 µM
Substance: Diprotin A (Ile-Pro-Ile) (peptide)
